{
  "source": "the NTF2 design screens of Basanta et al. (2020)",
  "data": [
    {"test": "protease stability score; higher = more stable; yeast display proteolysis, trypsin and chymotrypsin;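 note: relative to predicted unfolded state with 0 unfolded-like and 1 meaning tenfold more protease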", "values": [
      {"sequence": "DESEESALKFLKEWREHFRTGNEDHMEELADPNVRVVIGDKEYHGWEETSRLISEKLRHMRVKFVLHTIRVVDGRIHVKSSLIIEVGDKELRVETSYHFEKVNGRWRLRVIHQE", "protease stability score": 1.27},
      {"sequence": "DEEDRYMKELLEELLKDFETGNWDRLISLLDPHMRIQAENVTLHGRETTSRWLQEITSRVKGLRLHIESEEIQGDKAIIDGINNVNGREIRTILFSVKVDGRWLIKSIIIL", "protease stability score": 1.28},
      {"sequence": "DEEEKLEEDLARFWVTLLKTGDEEVIRHLADPHVREDWDGVHIHGREHVAKYLSQIKNVTWEIKEVRIYNGRTEIDARHHVNGRDEHVRIHIEVFNGKVRRLRFEKR", "protease stability score": 1.5},
      {"sequence": "SEEERLTEEFLTKFEEILETGDEELLWRLIDPHARTLFDGQEFHGREDFVMIFDELVRHAGFDVRHIHSIHVQGDKIEVRSTMVVNGRNFEIRLHLRKINGRWHIEEIEIR", "protease stability score": 2.7},
      {"sequence": "DELEEETRFILEYLRHSWKTGDWRLESRMADPDVRLDVDGKHLHGREMVSHFAKRLSERVDHSEFIERDLRIQGNKIELHGELILRFNGVEVHRELHLHISKVNGRWVLKDIRIG", "protease stability score": 0.831},
      {"sequence": "SESEEDFRWFMHVLLKTFLTGDEDEFDSLIDPNVRLIVNGKDTHGWEVAVKFVRRFDHLDLYVRESEIQGDKVESDTELIVNFNGVSIKHKTRVIAEKVNGRWILREMRIG", "protease stability score": 1.44},
      {"sequence": "DEEEHLARKIATIMIHTLITGNEEEMRRLADPTTRFHDEDHTFHGMEEYNRFIKEWRERFPGVKEEWKIRHIHVINGVAHFDIELRIIVGDKEVSDRVEFIIVVVDGRVKSFELRHK", "protease stability score": 2.15},
      {"sequence": "DEDDELSHRAVLLYMEAVLTGNEDFMSRLVDPDVRHIVGDKEYIGREQFVEWFNEFVEKVKNVTVRLRHHDIQGDKVVVHTEYRVNGRTWHEHVIILKINGKWRLKELRIHIE", "protease stability score": 0.723},
      {"sequence": "DEQEEFSHRIMRLLIDLWHTGDWTLIEQYLDPNVRFEVGDKRHHGRESAVKALLELHRRLGVKHFDVKDKDQQGEKLVVVLEDRAENHHMEHELIVVKIDGRWTNHSIISRIH", "protease stability score": 1.01},
      {"sequence": "DEEEEHLRTMWEIWMHALRTGDEDFMTNLADPNVRVLILQGDKEEESHGRDELSRLLREIRIEEFTITDVRIQGDKSEADVHVVGQIDGRRTRTKIRISFIIFNGRLHSIRFEIH", "protease stability score": 2.2},
      {"sequence": "SREEKEIKEIWELLVRSWLTGDEETLTHLLDPNARSVINGREYHGRETIAHELTRHLYELRIKDIELHHVDIIGDKVKIDSRVEYHFNGRETELKVEIVALKINGRWRLKDNIIK", "protease stability score": 1.47},
      {"sequence": "REEDEQLKRFTDEFIQVQRTGNEDLLREYADPNVKIVVGDKELHGREEMLYVFREIRVHNSELKRMHIIDGRAEVHVTAHVRQGDKVIEVKLHIIIYKIDGRWVIESMQWE", "protease stability score": 1.01},
      {"sequence": "DEEEEEVKKVFEMLEKSLETGDEKLWEHMADPNTRIDIGDKEIHGRESFHEIVKHIRIKDIRMRIHEWRTYDGRLDLRGQVELHLNINGKHLDITVEHRLIIVKINGRWLLEEETIV", "protease stability score": -0.109},
      {"sequence": "DEERERREDETRLLLEILITGDEDRFRQLADPHMKLHIGDKDFIGREVAVKFLRDLWREFGIKHILFEDSTIVGDKLEHRMHLEVNGKRRRMELENVIIDGRVHSMHIRIH", "protease stability score": 1.39},
      {"sequence": "SELEKELREFIKKVVEALATGDEDLLRELFDPHVRVKIGEWHFIGMEEMLRLIREIRMEIEEVRITELQIQGDKIHMETRLHGRLHIGDKERQTHYSTRVNVRKIDGQWITKSWEVH", "protease stability score": 2.04},
      {"sequence": "NHLEEVKDLAIELSWKLMHTGNEELSDRNADPNTRLEFNGVEFVGREWFRQFISEMGVKHIRIDDIDMFDGRMRLDGTFNFNGQEIKVTVFTRKVDGRWRIKSLKFD", "protease stability score": 1.6},
      {"sequence": "DHEEKLYELEIRLLQEIVETGDEETSHRLADPHARLNINGRHLVGREHFREFVHKIKGARLDIEEVRVQGDKVIIHGRWIQGDKELDVDFISRKIDGKWKFHSIHVH", "protease stability score": 1.33},
      {"sequence": "SEEDKLIKDAFTEIHTWIKTGNEEYLERLVDPHVKIIINGRELHGMEFLHEELKRFDHLHLRDHHLESFDIQGNKIVLEGTNDIEIKWNGVRIRTELEIHFFVEKVNGKWIIREFVIV", "protease stability score": 1.26},
      {"sequence": "SDKEEEAHRLLELLIHWYRTGDFETWRQLMDPHVRNVVDVNGRELHHHGREEVTDSLRFFWEHLGIKHVHFRHVEVQGDKIKLHGQQRVDGQEHQSDFIFIIVDGRVKFIFIHLR", "protease stability score": 0.649},
      {"sequence": "SEDERDISEVLEEISRIWKTGDEKRFRDLADPNVKMVVNGRELHGRDFAIEAWRKFRELYGIKHIRTVQVNSIDIQGDKVHVDTSMDGQQGEKRTVLRSEIIMLKVDGRWHLESMSFG", "protease stability score": 1.72},
      {"sequence": "SEDDEAVSHALHLLSEVLLTGDERTWKRLADPNVKLEFNGREFHGMEEWKRMLDHIRIDHVKIELERSDSIGDKMHTHGRLIVHTTINGVELDRITDVRFIIEKVDGRWKLTSLHIH", "protease stability score": 1.29},
      {"sequence": "DDREKFWKELAKEWFKSLITGDEDSLRKLLDPDVRTIVGDWHIHGMEEVLKFWLELRISDHDSKRIIVINGVNLNDIRSNGNVNGVERETRVELIIEVVDGRVRRVEFRMK", "protease stability score": 2.01},
      {"sequence": "SDDHHKAKLFNEWFKQHFDTGDEHLYKRLADPNVRIHINGVDIVGRELATHLLSHIRITHFEVHDHKVQGNKVHTDGRVHGDVNGVEERVYVELVIEKIDGRWLNHQEIWV", "protease stability score": 0.332},
      {"sequence": "SEEEEIVRHANHLFTHAMNTGDWRLLKELFDPHTKILIDGQEHHGWSIIYRELRHIRIDHVEMRIRSVHTQGNKAHVDGEIIVEGTVNGVTHKTSNRVNLIIRKVDGRWIVESIDIH", "protease stability score": 1.55},
      {"sequence": "DEDTRESEKMLSEILESHLTGNWRMIRHLADPHVRVEIGDKTYHGRDNLKRIFLDLLEKLGVDHMEFRDIHIRVQGDKLHIHIKVDLIVGDKVDIMQSHIHVEKINGRWYVHLVHWRLT", "protease stability score": 0.817},
      {"sequence": "DHNKEAADHILHLLRQSWRTGDEEIFQRLIDPNVKLQVGDKQFHGREEVTRWIQLYLLRFKGITIHDIEVKEVRTYDGRVEAREIHHNHVNGQDHSLDVHLYIVKVNGQWRLESMHVN", "protease stability score": 1.77},
      {"sequence": "DEDEEQAERAIRIYTEVLNTGNEEESERMADPHVRIIVNGVILHGREMFYQYVHEWRVDIRVILRHVKVFEGWVDVEGEFNSHLEVNGRHENNRSKVRLHILKVNGVWLIHEVRVH", "protease stability score": 1.5},
      {"sequence": "DEDTELAERWVELFRKSVETGDEHKLEKLLDPHVKLDIGDKRYHGRELAVDTLKTMIDEMRSDHVTIDRVDVFDGRVILHSRIESTVDGRRTELEMRIVARKIDGRWVVESLEIN", "protease stability score": 1.49},
      {"sequence": "DELERRSRDLVELFITALKTGDEDLFSRLIDPNALTWVGDKEQVGWHTDVKMFEDLGLTNFDFHLRSKEIRIIDGKLHTIINGSININGKETDTEIRITISKINGRWQLSSVFVRLH", "protease stability score": 0.786},
      {"sequence": "SEDEKFLQIALHLMMHWINTGDEDFLREMADPHVRLHDGDKEHHGWKVIEHLFHYYGVDHITVKRYTIIGDKVKTDGELRVGDKRFRILYETVKIDGRWHVHKIEIR", "protease stability score": 1.43},
      {"sequence": "SEEKEIAERIVRELLYAYHTGDEQLFNHLADPHVRIHIGEFHKVGREHWEELHRWLDNHLRIHRFFFRDVEVQGEKVHIHVRTNTIIGDKRIDTNLLFFILVVNGKIKHMEVREI", "protease stability score": 1.81},
      {"sequence": "SEDETLMRHLVQLFIRREATGDWKKLDELFDPNVRIDINGVEYHGREDWLKHYEDLLKRIKNVRIEIDDQHMEVVGDFIHYDLHGTLEVNGRNIRMQIIIHIRKIDGKWLIEEQIIIIR", "protease stability score": 1.4},
      {"sequence": "DDHKKLVDEMIRIVLEELKTGNEETFNKLADPNVKVEWNGVDNHGREEVEEWWREYREVLGVDVIHIELKHVDPQGDKARIDGIIVETQGEKHHSFRAHIIIVVVNGRMHSIHERRR", "protease stability score": 0.881},
      {"sequence": "HDREKIAITFLKFLIHWHLTGNEDHLRENIDPHVRIRIHIDGKNNHLVGMEDWYKWVREELERADHLELRLDDVDVQGDKLHSDITNIIRIDGKTIVRKVHVHLDVVNGQVKSIEIEIR", "protease stability score": 2.54},
      {"sequence": "SEWEKQLRHMVHLVLLAVRTGNEHLLNELLDPDTRAVFNGVESVGREDMWRMLKHLRIERVRVHDERHDDQGNKARFILLGETQVNVNGKVLETHTEIEIILIKVDGQWTFETLTFRIT", "protease stability score": 1.55},
      {"sequence": "SEEDRDVRHFLEVWWHRVQTGDEDSLHELADPRMRVDINGRILHGREHISRFMIELTESFGATPEDFQIEHVDTVGNKVHIKTRIFIRQGNFNLIRDTEMIVLKVDGRWLLTEVRVR", "protease stability score": 2.6}
    ]}
  ]
}
